Measured values as given in publication PMC3526297.

Target: GST-Rev3 (S. cerevisiae) (UniProt P14284)
Assay: affinity co-purification of the polymerase from yeast

Chain of UniProt P14284 (P14284 whole entry): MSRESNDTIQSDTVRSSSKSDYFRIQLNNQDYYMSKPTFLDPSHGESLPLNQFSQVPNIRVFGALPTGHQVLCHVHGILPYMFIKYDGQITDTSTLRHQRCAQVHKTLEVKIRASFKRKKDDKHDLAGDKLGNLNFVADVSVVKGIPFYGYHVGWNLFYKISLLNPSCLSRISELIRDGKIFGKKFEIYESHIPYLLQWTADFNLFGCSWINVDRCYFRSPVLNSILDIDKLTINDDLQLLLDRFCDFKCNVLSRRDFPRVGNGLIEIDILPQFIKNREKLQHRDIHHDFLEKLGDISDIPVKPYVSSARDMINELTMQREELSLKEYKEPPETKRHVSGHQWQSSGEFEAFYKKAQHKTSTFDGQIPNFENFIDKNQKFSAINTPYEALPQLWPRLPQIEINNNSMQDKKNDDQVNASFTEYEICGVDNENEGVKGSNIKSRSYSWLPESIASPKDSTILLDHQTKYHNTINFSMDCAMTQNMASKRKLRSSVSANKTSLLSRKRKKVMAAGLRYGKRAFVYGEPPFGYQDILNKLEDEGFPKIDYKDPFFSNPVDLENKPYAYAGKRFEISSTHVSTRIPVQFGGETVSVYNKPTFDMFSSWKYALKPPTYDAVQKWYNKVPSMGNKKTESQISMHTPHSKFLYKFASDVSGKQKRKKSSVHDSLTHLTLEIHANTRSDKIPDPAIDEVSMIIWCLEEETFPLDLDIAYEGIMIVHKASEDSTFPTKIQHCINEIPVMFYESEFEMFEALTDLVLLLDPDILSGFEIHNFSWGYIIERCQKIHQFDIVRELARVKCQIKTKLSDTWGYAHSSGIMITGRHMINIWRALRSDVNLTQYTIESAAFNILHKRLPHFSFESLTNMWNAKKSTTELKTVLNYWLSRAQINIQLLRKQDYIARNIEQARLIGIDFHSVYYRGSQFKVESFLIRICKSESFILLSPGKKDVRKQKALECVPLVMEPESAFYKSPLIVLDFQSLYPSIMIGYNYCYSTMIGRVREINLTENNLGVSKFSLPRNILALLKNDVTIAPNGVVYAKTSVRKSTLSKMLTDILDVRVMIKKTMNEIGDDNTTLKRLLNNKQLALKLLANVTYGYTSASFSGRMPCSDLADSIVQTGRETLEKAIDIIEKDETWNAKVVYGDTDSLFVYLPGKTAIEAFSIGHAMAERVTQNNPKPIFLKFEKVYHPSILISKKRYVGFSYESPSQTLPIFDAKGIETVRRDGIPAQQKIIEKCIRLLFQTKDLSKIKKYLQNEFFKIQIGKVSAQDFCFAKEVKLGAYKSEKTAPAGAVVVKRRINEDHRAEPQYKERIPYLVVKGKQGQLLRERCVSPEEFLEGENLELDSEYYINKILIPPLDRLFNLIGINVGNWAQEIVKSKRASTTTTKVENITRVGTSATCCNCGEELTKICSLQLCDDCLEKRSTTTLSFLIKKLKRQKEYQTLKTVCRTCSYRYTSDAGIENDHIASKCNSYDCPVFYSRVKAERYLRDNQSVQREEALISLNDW

“Pol32 with an N-terminal His7 tag (from UniProt P47110 1-350) (natural protein)” was tested. Which stoichiometry of the complex after Ni-chelate chromatography (percent) did it give?
The stoichiometry of the complex after Ni-chelate chromatography (percent) was 100%.
